We go through 5 molecules from paper PMC4240464.

The chains are these.
B1: CCL18 (ligand)
chain: AQVGTNKELCCLVYTSWQIPQKFIVDYSETSPQCPKPGVILLTKRGRQICADPNKKWVQKYISDLKLNA
B2: CCL24 (ligand)
chain: VVIPSPCCMFFVSKRIPENRVVSYQLSSRSTCLKAGVIFTTKKGQQFCGDPKQEWVQRYMKNLDAKQKKASPRARAVAVKGPVQRYPGNQTTC
B3: CCL15 (ligand)
chain: QFTNDAETELMMSKLPLENPVVLNSFHFAADCCTSYISQSIPCSLMKSYFETSSECSKPGVIFLTKKGRQVCAKPSGPGVQDCMKKLKPYSI
B4: CCL1 (ligand)
chain: KSMQVPFSRCCFSFAEQEIPLRAILCYRNTSSICSNEGLIFKLKRGKEACALDTVGWVQRHRKMLRHCPSKRK
B5: CCL23 (ligand)
chain: RVTKDAETEFMMSKLPLENPVLLDRFHATSADCCISYTPRSIPCSLLESYFETNSECSKPGVIFLTKKGRRFCANPSDKQVQVCMRMLKLDTRIKTRKN

The target of the first assay is Evasin-4–Fc (Rhipicephalus sanguineus). Kind of assay: SPR.
By Kd is commonly meant a measure of binding affinity in units of concentration. A lower Kd goes with higher affinity. B1: the Kd is 3.63 nM.

Turning to B2, the Kd was 708 nM.

As for B3, the Kd was determined as 0.016 nM.

For the molecule B4, the Kd turned out to be 0.097 nM.

Regarding B5, the Kd was determined as 0.232 nM.

A further assay has as its target Fc–Evasin-4 (Rhipicephalus sanguineus). In words: SPR. A general note: Surface plasmon resonance follows binding to a sensor surface in real time, without labels.
Molecule B1 displayed a Kd of 0.083 nM.

As to B2, the Kd came to 4.84 nM.

The molecule B3 registered a Kd of 0.04 nM.

In turn, B4 gave a Kd of 0.276 nM. This Kd lies about 6.9-fold higher than the previous one.

Turning to B5, the Kd stood at 0.124 nM. Compared with the last molecule, the Kd is about 2.2-fold lower.
